Reference: PMC8155045

Biological target: mCherry-YC (37 kDa isoform)
Test: FRET or BRET; FLIM-FRET (phasor analysis) in nuclei of live HeLa cells, eGFP donor and mCherry acceptor, all three NF-Y subunits transfected (third one untagged), 24 h after transfection, 37 degrees, 5% CO2

FRET efficiency: 16% | fraction of FRET (% pixels): 38.2 % pixels
B1: EGFP-YB (natural protein)
chain: MTMDGDSSTTDASQLGISADYIGGSHYVIQPHDDTEDSMNDHEDTNGSKESFREQDIYLPIANVARIMKNAIPQTGKIAKDAKECVQECVSEFISFITSEASERCHQEKRKTINGEDILFAMSTLGFDSYVEPLKLYLQKFREAMKGEKGIGGAVTATDGLSEELTEEAFTNQLPAGLITTDGQQQNVMVYTTSYQQISGVQQIQFS
